Laboratory results from patent US20220397533A1.

Tests used:
[1] = biological target: poly-L-lysine; assay: SPR imaging, PLL-coated Al microarray, chemokines in PBS buffer; difference against CXCL10 as reference
[2] = biological target: poly-L-lysine; assay: SPR imaging, PLL-coated Al microarray, chemokines spiked in artificial urine matrix; difference against CXCL10 as reference
[3] = biological target: biotinylated bovine serum albumin (bovine) (UniProt P02769); assay: SPR angular scanning on Al/Al2O3 film, streptavidin 500 µg/mL in 1xPBS buffer
[4] = biological target: biotinylated bovine serum albumin (bovine) (UniProt P02769); assay: SPR angular scanning on Al/Al2O3 film, streptavidin 500 µg/mL spiked in undiluted human serum, serum-only control subtracted

Sequence of biotinylated bovine serum albumin (bovine) (P02769 25-607 limits assumed, form in doubt): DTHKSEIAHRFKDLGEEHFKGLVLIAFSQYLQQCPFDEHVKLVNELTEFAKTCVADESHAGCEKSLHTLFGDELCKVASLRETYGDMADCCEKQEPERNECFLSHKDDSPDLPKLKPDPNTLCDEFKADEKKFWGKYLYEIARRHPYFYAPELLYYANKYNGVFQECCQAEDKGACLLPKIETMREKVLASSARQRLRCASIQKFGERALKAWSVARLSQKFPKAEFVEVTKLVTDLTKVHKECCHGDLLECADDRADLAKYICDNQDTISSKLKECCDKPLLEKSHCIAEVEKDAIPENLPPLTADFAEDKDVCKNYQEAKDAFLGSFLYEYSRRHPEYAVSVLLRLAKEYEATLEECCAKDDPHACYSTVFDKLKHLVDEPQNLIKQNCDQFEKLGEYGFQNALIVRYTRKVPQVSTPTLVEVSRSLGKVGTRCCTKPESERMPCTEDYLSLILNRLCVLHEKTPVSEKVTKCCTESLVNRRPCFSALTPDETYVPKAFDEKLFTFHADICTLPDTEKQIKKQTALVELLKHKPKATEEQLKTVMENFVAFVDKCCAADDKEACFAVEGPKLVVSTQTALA

Row | relative difference in response between CXCL10 and CXCL8 (kinetic reflectivity shift) [1] [%] | relative difference in response between CXCL10 and CXCL8 (kinetic reflectivity shift) [2] [%] | specific binding signal (SPR angular shift) [3] [°] | specific binding signal (SPR angular shift) [4] [°] | Substance
1 | 0.25 | 0.68 |  |  | CXCL8 (from UniProt P10145 29-99) (ligand)
2 |  |  | 0.21 | 0.17 | streptavidin (from UniProt P22629 37-163)
